Measurements: paper PMC9230529

Molecular target: CD16a ectodomain (Human CD16a, amino acids Met1-Gln208, C-terminal His-tag) (human)
Assay: BLI

SARS-CoV-2 ORF8 (aa16-121), His Tag (from UniProt P0DTC8 16-121) (natural protein)
Kd: 38.9 nM
